# Publication PMC7192616
# T1: mRBM20(513-621) (Mus musculus, UniProt Q3UQS8 513-621)
# T1 sequence: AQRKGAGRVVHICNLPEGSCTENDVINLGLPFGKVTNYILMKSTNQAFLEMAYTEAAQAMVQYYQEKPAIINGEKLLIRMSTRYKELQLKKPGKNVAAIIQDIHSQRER
# T2: mRBM20(513-621) Q558A (Mus musculus, UniProt Q3UQS8 513-621, Q558A)
# T2 sequence: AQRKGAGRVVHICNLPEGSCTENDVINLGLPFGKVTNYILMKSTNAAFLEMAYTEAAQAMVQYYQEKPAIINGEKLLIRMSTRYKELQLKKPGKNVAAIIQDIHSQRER
# T3: mRBM20(513-621) R595M (Mus musculus, UniProt Q3UQS8 513-621, R595M)
# T3 sequence: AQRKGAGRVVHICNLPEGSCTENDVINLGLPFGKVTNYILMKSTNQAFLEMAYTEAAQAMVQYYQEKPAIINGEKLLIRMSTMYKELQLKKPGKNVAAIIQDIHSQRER
# T4: mRBM20(513-609) delta-alpha3 (Mus musculus, UniProt Q3UQS8 513-609)
# T4 sequence: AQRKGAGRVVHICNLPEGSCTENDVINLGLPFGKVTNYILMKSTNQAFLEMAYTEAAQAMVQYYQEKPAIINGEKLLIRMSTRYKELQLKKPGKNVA
# T5: mRBM20(513-621) Y596A (Mus musculus, UniProt Q3UQS8 513-621, Y596A)
# T5 sequence: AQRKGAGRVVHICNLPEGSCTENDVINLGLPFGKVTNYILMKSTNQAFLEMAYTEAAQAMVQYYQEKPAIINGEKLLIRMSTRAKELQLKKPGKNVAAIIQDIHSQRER
# T6: mRBM20(513-621) H523A (Mus musculus, UniProt Q3UQS8 513-621, H523A)
# T6 sequence: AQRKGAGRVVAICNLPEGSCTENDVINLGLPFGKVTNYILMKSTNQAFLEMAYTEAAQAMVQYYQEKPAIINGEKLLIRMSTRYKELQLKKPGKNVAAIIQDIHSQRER
# T7: mRBM20(513-649) +RS (Mus musculus, UniProt Q3UQS8 513-649)
# T7 sequence: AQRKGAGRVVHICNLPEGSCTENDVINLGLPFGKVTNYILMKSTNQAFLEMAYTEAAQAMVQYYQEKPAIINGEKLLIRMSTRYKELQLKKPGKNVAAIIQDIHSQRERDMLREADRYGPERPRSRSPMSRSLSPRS
# T8: mRBM20(513-621) R591M (Mus musculus, UniProt Q3UQS8 513-621, R591M)
# T8 sequence: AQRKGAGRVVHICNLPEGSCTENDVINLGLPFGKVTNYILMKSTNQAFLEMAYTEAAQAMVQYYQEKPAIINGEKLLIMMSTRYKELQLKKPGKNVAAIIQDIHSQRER
# T9: mRBM20(513-621) N526A (Mus musculus, UniProt Q3UQS8 513-621, N526A)
# T9 sequence: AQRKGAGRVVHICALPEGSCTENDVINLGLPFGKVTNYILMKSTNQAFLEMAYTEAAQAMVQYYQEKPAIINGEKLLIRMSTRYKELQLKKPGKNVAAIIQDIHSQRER
# T10: mRBM20(513-621) V537I (Mus musculus, UniProt Q3UQS8 513-621, V537I)
# T10 sequence: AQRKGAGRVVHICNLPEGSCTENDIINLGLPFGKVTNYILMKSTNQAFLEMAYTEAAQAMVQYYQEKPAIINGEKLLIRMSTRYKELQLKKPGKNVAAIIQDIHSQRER
# T11: mRBM20(513-621) Q577A (Mus musculus, UniProt Q3UQS8 513-621, Q577A)
# T11 sequence: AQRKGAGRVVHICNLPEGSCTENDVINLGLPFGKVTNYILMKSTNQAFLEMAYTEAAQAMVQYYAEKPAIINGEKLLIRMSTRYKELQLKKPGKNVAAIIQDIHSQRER
# T12: mRBM20(513-621) F560A (Mus musculus, UniProt Q3UQS8 513-621, F560A)
# T12 sequence: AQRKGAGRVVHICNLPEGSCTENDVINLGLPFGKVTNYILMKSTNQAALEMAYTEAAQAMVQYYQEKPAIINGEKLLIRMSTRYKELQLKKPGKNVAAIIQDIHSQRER
# Tests used:
# Assay in all cases: ITC
# mRBM20(513-621) = target: T1, mRBM20(513-621)
# mRBM20(513-621) Q558A = target: T2, mRBM20(513-621) Q558A
# mRBM20(513-621) R595M = target: T3, mRBM20(513-621) R595M
# [1] = target: T4, mRBM20(513-609) delta-alpha3
# mRBM20(513-621) Y596A = target: T5, mRBM20(513-621) Y596A
# mRBM20(513-621) H523A = target: T6, mRBM20(513-621) H523A
# mRBM20(513-649) +RS = target: T7, mRBM20(513-649) +RS
# mRBM20(513-621) R591M = target: T8, mRBM20(513-621) R591M
# mRBM20(513-621) N526A = target: T9, mRBM20(513-621) N526A
# mRBM20(513-621) V537I = target: T10, mRBM20(513-621) V537I
# mRBM20(513-621) Q577A = target: T11, mRBM20(513-621) Q577A
# mRBM20(513-621) F560A = target: T12, mRBM20(513-621) F560A
binder,measurement,setting,value
GGGACCUGGUCUUUCCAGGUCCC (structured_RNA) [vIRES-SL],Kd,mRBM20(513-621),8 ± 1 µM
AUCUUG (ssRNA),Kd,mRBM20(513-621),4.8 ± 0.1 µM
AUCCUA (ssRNA),Kd,mRBM20(513-621),210 ± 3 µM
ACCUUA (ssRNA),Kd,mRBM20(513-621),13 ± 2 µM
AUUUUA (ssRNA),Kd,mRBM20(513-621),140 ± 30 µM
AUCUUA (ssRNA),Kd,mRBM20(513-621) Q558A,3.4 ± 0.7 µM
same,Kd,mRBM20(513-621) R595M,29.3 ± 0.3 µM
same,Kd,mRBM20(513-621),5.7 ± 0.2 µM
same,Kd,[1],43 ± 1 µM
same,Kd,mRBM20(513-621) Y596A,74 ± 13 µM
same,Kd,mRBM20(513-621) H523A,67 ± 12 µM
same,Kd,mRBM20(513-649) +RS,4.3 ± 0.4 µM
same,Kd,mRBM20(513-621) R591M,12.4 ± 0.6 µM
same,Kd,mRBM20(513-621) N526A,9 ± 1 µM
same,Kd,mRBM20(513-621) V537I,10.3 ± 0.7 µM
same,Kd,mRBM20(513-621) Q577A,6.6 ± 0.8 µM
same,Kd,mRBM20(513-621) F560A,156 ± 6 µM
AUCUCA (ssRNA),Kd,mRBM20(513-621),95 ± 1 µM
GUCUUA (ssRNA),Kd,mRBM20(513-621),4 ± 0.1 µM
